For assay [1], the target named is PTP-SL full cytoplasmic region (aa147-549). Nature of the assay: SEC; Superdex 200 HR 10/30 analytical column; 10 mM Hepes, 150 mM NaCl, 0.1 mM EDTA, 5 mM DTT, pH 7.5, no SDS; 100 µl sample, 0.5 ml/min; apparent MW against Bio-Rad gel filtration standard.
Assay [2] addresses PTP-SL 147-549 (C480S). The assay can be described thus: ITC; ERK2 (75-100 µM) injected into PTP-SL (8-10 µM) in the cell, 30 °C; single-site binding model.

pKd: −log10 of the molar value.

A word on the stoichiometry N: it is the number of molecules, sites or subunits per partner or assembly. Consider “PTP-SL full cytoplasmic region (aa147-549) (domain or fragment)”, for which the stoichiometry N in assay [1] turned out to be 2.

The term pKd denotes −log10 of the Kd, conventionally taken in molar units. Read a high pKd as a low Kd. As for “ERK2 (from UniProt P63086 1-358) (enzyme)”, in assay [2], the Ka is 6.6e+06 M⁻¹, the pKd was 6.82, the dH was -21 kcal/mol and the stoichiometry N was 1.06.

These data come from publication PMC2675061.
